Substrate in data set [1]: Nc1ncnc2c1ncn2[C@@H]1O[C@H](COP(=O)(O)OP(=O)(O)OP(=O)(O)O)[C@@H](O)[C@H]1O
Kind of data set: KM determination, PvGR luciferase (light intensity in luminometer, Lineweaver-Burk plots). The class given is biochemical, Phrixothrix vivianii. The settings on record: other: ammonium sulfate fractionated extract, ATP 0.1-4 mM, 0.5 mM luciferin solution, 8 mM MgSO4, 0.1 M Tris-HCl, pH 8.0, 25° C. How it is done:
(§1) Liquid cultures of SOLR cells carrying luciferase insert containing pBl were grown on LB/amp (50 μg/mL) medium at 37° C. with shaking overnight. The preculture (1/100 vol) was then inoculated in LB/amp (50 μg/mL) in the presence of 1 mM IPTG and incubated at 23° C. during 24 h (OD600=1.8). The cells were harvested by centrifugation at 3000 rpm during 10 min at 4° C., and the pellet was resuspended in cold extraction buffer (0.1 M sodium phosphate buffer, pH 7.5, containing 2 mM EDTA, 1 mM DTT, and 1% Triton X-100). Lysozyme was added to the final concentration of 1 mg/mL and the suspension incubated 15 min at 0° C. and frozen at −80° C. during 15 min. The lysate was centrifuged at 12000 g at 4° C. during 15 min. The supernatant was then fractionated with ammonium sulfate. The fraction precipitated between 55% and 70% saturation was dissolved in cold extraction buffer and stored at −20° C. in the presence of glycerol 15%, to maintain the activity.
(§2) Measurements of light intensities for KM determinations were made using the luminometer described above. […] The assays were carried out at 25° C. Each point of the Michaelis-Menten curve was assayed in quadruplicate. The KM values were estimated by Lineweaver-Burk plots of the reciprocal of light intensities versus […].

The nature of data set [2]: Luciferase assays: luminometer light output and time course. The settings on record: for total light output: in vivo and in vitro assays of IPTG-induced colonies, corrected for spectral photosensitivity. The class given is biochemical. The protocol: The activity levels were measured using a Luminescencer AB-2000 luminometer (Atto; Tokyo, Japan) by integration of total light emitted. The assay consisted of the addition of 50 μL of standard solution (2 mM ATP, 0.5 mM D-luciferin, 4 mM MgSO4 in 0.1 M Tris-HCl buffer, pH 8.0) to 10 μL of luciferase-containing extracts at 25° C. In vivo light intensities were measured after adding 50 μL of 0.5 mM D-luciferin in 0.1 M sodium citrate buffer pH 5.0 to 10 μL of bacterial suspension into a microtiter plate.

Substrate in data set [3]: O=C(O)[C@H]1CSC(c2nc3ccc(O)cc3s2)=N1
The experiment in a line: purified protein, by the assay type. Particulars: other: ammonium sulfate fractionated extract, luciferin 0.03-2 mM, 4 mM ATP solution, 8 mM MgSO4, 0.1 M Tris-HCl, pH 8.0, 25° C.

Substrate in data set [4]: Nc1ncnc2c1ncn2[C@@H]1O[C@H](COP(=O)(O)OP(=O)(O)OP(=O)(O)O)[C@@H](O)[C@H]1O
The experiment in a line: KM determination, PhRE luciferase (light intensity in luminometer, Lineweaver-Burk plots). The class given is biochemical, Phrixothrix hirtus. Particulars: other: ammonium sulfate fractionated extract, ATP 0.1-4 mM, 0.5 mM luciferin solution, 8 mM MgSO4, 0.1 M Tris-HCl, pH 8.0, 25° C. How it is done:
as §1, §2

The record followed here is patent US7276363B2, “Nucleic acid molecules encoding red and green emitting luciferases” (Toyo Boseki Kabushiki Kaisha, priority 1998, dated 2007).

One may read the Km as the substrate concentration at which the rate is half of its maximum.

B1: Phrixothrix vivianii green light-emitting luciferase PvGR, recombinant, wild type, SEQ ID NO: 2 (Phrixothrix vivianii) (protein)
chain: MEEENIRHGERPRDIVHPGSAGQQLYQSLYKFASFPEAIIDAHTNEVISYAQIFETSCRLAVSIEQYGLNENNVVGVCSENNINFFNPVLAALYLGIPVATSNDMYTDGELTGHLNISKPTIMFSSKKALPLILRVQQNLSFIKKVVVIDSMYDINGVECVSTFVARYTDHTFDPLSFTPKDFDPLEKIALIMSSSGTTGLPKGVVLSHRSLTIRFVHSRDPIYGTRTVPQTSILSLVPFHHAFGMFTTLSYFVVGLKVVMLKKFEGALFLKTIQNYKIPTIVVAPPVMVFLAKSPLVDQYDLSSLTEVATGGAPLGKDVAEAVAKRLKLPGIIQGYGLTETCCAVMITPHNAVKTGSTGRPLPYIKAKVLDNATGKALGPGERGEICFQSEMIMKGYYNNPEATIDTIDKDGWLHSGDIGYYDEDGNFFIVDRLKELIKYKGYQVAPAELENLLLQHPSIADAGVTGVPDEFGGQLPAACVVLESGKTLTEKEVQDFIAAQVTPTKHLRGGVVFVDSIPKGPTGKLIRKELREIFAQRAPKSKL
Consider B1, for which the Michaelis-Menten constant (Km) in data set [1] is 350 µM; in data set [3], 150 µM. Further, in data set [2], the total light output result is recorded as “nearly the same values”.

B2: Phrixothrix hirtus red light-emitting luciferase PhRE, recombinant, wild type, SEQ ID NO: 4 (Phrixothrix hirtus) (protein)
chain: MEEENIVNGDRPRDLVFPGTAGLQLYQSLYKYSYITDGIIDAHTNEVISYAQIFETSCRLAVSLEKYGLDHNNVVAICSENNIHFFGPLIAALYQGIPMATSNDMYTEREMIGHLNISKPCLMFCSKKSLPFILKVQKHLDFLKKVIVIDSMYDINGVECVFSFVSRYTDHAFDPVKFNPKEFDPLERTALIMTSSGTTGLPKGVVISHRSITIRFVHSSDPIYGTRIAPDTSILAIAPFHHAFGLFTALAYFPVGLKIVMVKKFEGEFFLKTIQNYKIASIVVPPPIMVYLAKSPLVDEYNLSSLTEIACGGSPLGRDIADKVAKRLKVHGILQGYGLTETCSALILSPNDRELKKGAIGTPMPYVQVKVIDINTGKALGPREKGEICFKSQMLMKGYHNNPQATRDALDKDGWLHTGDLGYYDEDRFIYVVDRLKELIKYKGYQVAPAELENLLLQHPNISDAGVIGIPDEFAGQLPSACVVLEPGKTMTEKEVQDYIAELVTTTKHLRGGVVFIDSIPKGPTGKLMRNELRAIFAREQAKSKL
Turning to B2, the figures for the Km in data set [3] and in data set [4] were 20 µM and 240 µM, respectively.

B3: PhRE: recombinant red light-emitting luciferase of Phrixothrix hirtus head lanterns, 546 amino acid residues (protein, listed as Phrixothrix hirtus)
chain: MEEENVVNGDRPRDLVFPGTAGLQLYQSLYKYSYITDGIIDAHTNEVISYAQIFETSCRLAVSLEKYGLDHNNVVAICSENNIHFFGPLIAALYQGIPMATSNDMYTEREMIGHLNISKPCLMFCSKKSLPFILKVQKHLDFLKRVIVIDSMYDINGVECVFSFDSRNTDHAFDPVKFNPKEFDPLERTALIMTSSGTTGLPKGVVISHRSITIRFVHSSDPIYGTRIAPDTSILAIAPFHHAFGLFTALAYFPVGLKIVMVKKFEGEFFLKTIQNYKIASIVVPPPIMVYLAKSPLVDEYNCSSLTEIASGGSPLGRDIADKVAKRLKVHGILQGYGLTETCSALILSPNDRELKKGAIGTPMPYVQVKVIDINTGKALGPREKGEICFKSQMLMKGYHNNPQATRDALDKDGWLHTGDLGYYDEDRFIYVVDRLKELIKYKGYQVAPAELENLLLQHPNISDAGVIEFRTNLLVNYLSACVVLEPGKTMTEKEVQDYIAELVTTTKHLRGGVVFIDSIPKGPTGKLMRNELRAIFAREQAKSKL
Take B3: the “rise time to the peak of intensity and decay rate of in vitro bioluminescence reaction” value in data set [2] (compared with PvGR, results not shown) is recorded as “faster”. The total light output entry in data set [2] was “nearly the same values”.
